Target: T1, MET928 (cMET protein derived from construct 25-928) (human, UniProt P08581 25-928)
T1 construct: MET ectodomain, residues 1-24 are the leader; produced in Lec 8 cells; background text says the ectodomain is furin-cleaved into alpha (25-307) and beta chains; biotinylated form used in selections; also called MET928 extracellular domain; Met extracellular domain
Experiment: ELISA, soluble scFv

T1 sequence (P08581 25-928): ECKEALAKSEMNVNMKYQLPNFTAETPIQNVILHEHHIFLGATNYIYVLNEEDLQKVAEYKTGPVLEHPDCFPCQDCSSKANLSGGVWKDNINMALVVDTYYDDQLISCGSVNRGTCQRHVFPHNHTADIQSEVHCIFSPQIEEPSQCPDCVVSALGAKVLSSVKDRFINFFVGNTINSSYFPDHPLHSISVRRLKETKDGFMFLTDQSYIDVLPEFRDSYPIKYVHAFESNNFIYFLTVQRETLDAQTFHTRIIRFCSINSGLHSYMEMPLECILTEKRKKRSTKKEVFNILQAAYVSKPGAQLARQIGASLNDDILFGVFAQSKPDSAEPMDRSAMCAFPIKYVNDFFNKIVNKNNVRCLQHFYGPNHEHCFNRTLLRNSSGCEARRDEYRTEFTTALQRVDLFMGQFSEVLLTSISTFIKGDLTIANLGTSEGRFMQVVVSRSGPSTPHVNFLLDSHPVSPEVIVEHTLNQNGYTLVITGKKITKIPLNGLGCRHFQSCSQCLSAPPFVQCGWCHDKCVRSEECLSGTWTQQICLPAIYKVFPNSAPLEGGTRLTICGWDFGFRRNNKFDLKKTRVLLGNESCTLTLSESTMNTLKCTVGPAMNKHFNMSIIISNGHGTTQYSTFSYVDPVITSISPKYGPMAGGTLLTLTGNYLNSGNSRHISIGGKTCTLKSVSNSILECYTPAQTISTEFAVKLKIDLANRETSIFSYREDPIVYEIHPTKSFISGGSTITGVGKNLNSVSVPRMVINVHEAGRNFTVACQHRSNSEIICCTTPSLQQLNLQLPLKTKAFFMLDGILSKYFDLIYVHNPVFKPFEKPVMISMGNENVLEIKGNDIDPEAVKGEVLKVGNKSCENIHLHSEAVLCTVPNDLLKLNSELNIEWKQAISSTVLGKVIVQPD

Binder | binding result
111_B12 (scFv, not shown: 6xHis/tri-FLAG tags) scFv: QMQLVQSGAEVKKPGAPVKVSCKVSGYTFTDYYMHWVQQAPGKGLEWMGLVDPEDGETIYAEKFQGRVTITADTSTDTAYMELSSLRSEDTAVYYCATDATTPYWGAQAWGQGTLVTVSSLEGGGGSGGGGSGGGASDIQMTQSPSSLSASVGDRVTITCQASQDISNYLNWYQQKPGRAPKVLIYDASNLETGVPSRFSGSGSGTEFTLTISNLRPDDFATYYCQQGDSFPLTFGGGTKVEIK | binds
111_C8 (scFv, not shown: 6xHis/tri-FLAG tags) scFv: QMQLVQSGAEVKKPGAPVKVSCKVSGYTFTDYYMHWVQQAPGKGLEWMGLVDPEDGETIYAEKFQGRVTITADTSTDTAYMELSSLRSEDTAVYYCATDATTPYWFPVVWGQGTLVTVSSLEGGGGSGGGGSGGGASDIQMTQSPSSLSASVGDRVTITCQASQDISNYLNWYQQKPGRAPKVLIYDASNLETGVPSRFSGSGSGTEFTLTISNLRPDDFATYYCQQGDSFPLTFGGGTKVEIK | binds
111_E4 (scFv, not shown: 6xHis/tri-FLAG tags) scFv: QMQLVQSGAEVKKPGAPVKVSCKVSGYTFTDYYMHWVQQAPGKGLEWMGLVDPEDGETIYAEKFQGRVTITADTSTDTAYMELSSLRSEDTAVYYCATDATTPYWGIEVWGQGTLVTVSSLEGGGGSGGGGSGGGASDIQMTQSPSSLSASVGDRVTITCQASQDISNYLNWYQQKPGRAPKVLIYDASNLETGVPSRFSGSGSGTEFTLTISNLRPDDFATYYCQQGDSFPLTFGGGTKVEIK | binds
111_C1 (scFv, not shown: 6xHis/tri-FLAG tags) scFv: QMQLVQSGAEVKKPGAPVKVSCKVSGYTFTDYYMHWVQQAPGKGLEWMGLVDPEDGETIYAEKFQGRVTITADTSTDTAYMELSSLRSEDTAVYYCATDATTPYWSPWAWGQGTLVTVSSLEGGGGSGGGGSGGGASDIQMTQSPSSLSASVGDRVTITCQASQDISNYLNWYQQKPGRAPKVLIYDASNLETGVPSRFSGSGSGTEFTLTISNLRPDDFATYYCQQGDSFPLTFGGGTKVEIK | binds
111_D5 (scFv, not shown: 6xHis/tri-FLAG tags) scFv: QMQLVQSGAEVKKPGAPVKVSCKVSGYTFTDYYMHWVQQAPGKGLEWMGLVDPEDGETIYAEKFQGRVTITADTSTDTAYMELSSLRSEDTAVYYCATDATTPYWFPAVWGQGTLVTVSSLEGGGGSGGGGSGGGASDIQMTQSPSSLSASVGDRVTITCQASQDISNYLNWYQQKPGRAPKVLIYDASNLETGVPSRFSGSGSGTEFTLTISNLRPDDFATYYCQQGDSFPLTFGGGTKVEIK | binds
111_D7 (scFv, not shown: 6xHis/tri-FLAG tags) scFv: QMQLVQSGAEVKKPGAPVKVSCKVSGYTFTDYYMHWVQQAPGKGLEWMGLVDPEDGETIYAEKFQGRVTITADTSTDTAYMELSSLRSEDTAVYYCATDATTPYWFPYAWGQGTLVTVSSLEGGGGSGGGGSGGGASDIQMTQSPSSLSASVGDRVTITCQASQDISNYLNWYQQKPGRAPKVLIYDASNLETGVPSRFSGSGSGTEFTLTISNLRPDDFATYYCQQGDSFPLTFGGGTKVEIK | binds
111_D2 (scFv, not shown: 6xHis/tri-FLAG tags) scFv: QMQLVQSGAEVKKPGAPVKVSCKVSGYTFTDYYMHWVQQAPGKGLEWMGLVDPEDGETIYAEKFQGRVTITADTSTDTAYMELSSLRSEDTAVYYCATDATTPYWFPWIWGQGTLVTVSSLEGGGGSGGGGSGGGASDIQMTQSPSSLSASVGDRVTITCQASQDISNYLNWYQQKPGRAPKVLIYDASNLETGVPSRFSGSGSGTEFTLTISNLRPDDFATYYCQQGDSFPLTFGGGTKVEIK | binds
111_E5 (scFv, not shown: 6xHis/tri-FLAG tags) scFv: QMQLVQSGAEVKKPGAPVKVSCKVSGYTFTDYYMHWVQQAPGKGLEWMGLVDPEDGETIYAEKFQGRVTITADTSTDTAYMELSSLRSEDTAVYYCATDATTPYWGMCEWGQGTLVTVSSLEGGGGSGGGGSGGGASDIQMTQSPSSLSASVGDRVTITCQASQDISNYLNWYQQKPGRAPKVLIYDASNLETGVPSRFSGSGSGTEFTLTISNLRPDDFATYYCQQGDSFPLTFGGGTKVEIK | binds
111_D1 (scFv, not shown: 6xHis/tri-FLAG tags) scFv: QMQLVQSGAEVKKPGAPVKVSCKVSGYTFTDYYMHWVQQAPGKGLEWMGLVDPEDGETIYAEKFQGRVTITADTSTDTAYMELSSLRSEDTAVYYCATDATTPYWGMDEWGQGTLVTVSSLEGGGGSGGGGSGGGASDIQMTQSPSSLSASVGDRVTITCQASQDISNYLNWYQQKPGRAPKVLIYDASNLETGVPSRFSGSGSGTEFTLTISNLRPDDFATYYCQQGDSFPLTFGGGTKVEIK | binds
111_D4 (scFv, not shown: 6xHis/tri-FLAG tags) scFv: QMQLVQSGAEVKKPGAPVKVSCKVSGYTFTDYYMHWVQQAPGKGLEWMGLVDPEDGETIYAEKFQGRVTITADTSTDTAYMELSSLRSEDTAVYYCATDATTPYWGMWVWGQGTLVTVSSLEGGGGSGGGGSGGGASDIQMTQSPSSLSASVGDRVTITCQASQDISNYLNWYQQKPGRAPKVLIYDASNLETGVPSRFSGSGSGTEFTLTISNLRPDDFATYYCQQGDSFPLTFGGGTKVEIK | binds

The remaining lines, values ahead:

binding result | Binder
binds | 111_E3 (scFv, not shown: 6xHis/tri-FLAG tags) scFv: QMQLVQSGAEVKKPGAPVKVSCKVSGYTFTDYYMHWVQQAPGKGLEWMGLVDPEDGETIYAEKFQGRVTITADTSTDTAYMELSSLRSEDTAVYYCATDATTPYWFPVEWGQGTLVTVSSLEGGGGSGGGGSGGGASDIQMTQSPSSLSASVGDRVTITCQASQDISNYLNWYQQKPGRAPKVLIYDASNLETGVPSRFSGSGSGTEFTLTISNLRPDDFATYYCQQGDSFPLTFGGGTKVEIK
binds | 111_D8 (scFv, not shown: 6xHis/tri-FLAG tags) scFv: QMQLVQSGAEVKKPGAPVKVSCKVSGYTFTDYYMHWVQQAPGKGLEWMGLVDPEDGETIYAEKFQGRVTITADTSTDTAYMELSSLRSEDTAVYYCATDATTPYWGMSWWGQGTLVTVSSLEGGGGSGGGGSGGGASDIQMTQSPSSLSASVGDRVTITCQASQDISNYLNWYQQKPGRAPKVLIYDASNLETGVPSRFSGSGSGTEFTLTISNLRPDDFATYYCQQGDSFPLTFGGGTKVEIK
binds | 111_C3 (scFv, not shown: 6xHis/tri-FLAG tags) scFv: QMQLVQSGAEVKKPGAPVKVSCKVSGYTFTDYYMHWVQQAPGKGLEWMGLVDPEDGETIYAEKFQGRVTITADTSTDTAYMELSSLRSEDTAVYYCATDATTPYWGMQGWGQGTLVTVSSLEGGGGSGGGGSGGGASDIQMTQSPSSLSASVGDRVTITCQASQDISNYLNWYQQKPGRAPKVLIYDASNLETGVPSRFSGSGSGTEFTLTISNLRPDDFATYYCQQGDSFPLTFGGGTKVEIK
binds | 111_C6 (scFv, not shown: 6xHis/tri-FLAG tags) scFv: QMQLVQSGAEVKKPGAPVKVSCKVSGYTFTDYYMHWVQQAPGKGLEWMGLVDPEDGETIYAEKFQGRVTITADTSTDTAYMELSSLRSEDTAVYYCATDATTPYWFPQHWGQGTLVTVSSLEGGGGSGGGGSGGGASDIQMTQSPSSLSASVGDRVTITCQASQDISNYLNWYQQKPGRAPKVLIYDASNLETGVPSRFSGSGSGTEFTLTISNLRPDDFATYYCQQGDSFPLTFGGGTKVEIK
binds | 111_D3 (scFv, not shown: 6xHis/tri-FLAG tags) scFv: QMQLVQSGAEVKKPGAPVKVSCKVSGYTFTDYYMHWVQQAPGKGLEWMGLVDPEDGETIYAEKFQGRVTITADTSTDTAYMELSSLRSEDTAVYYCATDATTPYWGAALWGQGTLVTVSSLEGGGGSGGGGSGGGASDIQMTQSPSSLSASVGDRVTITCQASQDISNYLNWYQQKPGRAPKVLIYDASNLETGVPSRFSGSGSGTEFTLTISNLRPDDFATYYCQQGDSFPLTFGGGTKVEIK
binds | 111_D11 (scFv, not shown: 6xHis/tri-FLAG tags) scFv: QMQLVQSGAEVKKPGAPVKVSCKVSGYTFTDYYMHWVQQAPGKGLEWMGLVDPEDGETIYAEKFQGRVTITADTSTDTAYMELSSLRSEDTAVYYCATDATTPYWGMMRWGQGTLVTVSSLEGGGGSGGGGSGGGASDIQMTQSPSSLSASVGDRVTITCQASQDISNYLNWYQQKPGRAPKVLIYDASNLETGVPSRFSGSGSGTEFTLTISNLRPDDFATYYCQQGDSFPLTFGGGTKVEIK
binds | 111_C12 (scFv, not shown: 6xHis/tri-FLAG tags) scFv: QMQLVQSGAEVKKPGAPVKVSCKVSGYTFTDYYMHWVQQAPGKGLEWMGLVDPEDGETIYAEKFQGRVTITADTSTDTAYMELSSLRSEDTAVYYCATDATTPYWFPRYWGQGTLVTVSSLEGGGGSGGGGSGGGASDIQMTQSPSSLSASVGDRVTITCQASQDISNYLNWYQQKPGRAPKVLIYDASNLETGVPSRFSGSGSGTEFTLTISNLRPDDFATYYCQQGDSFPLTFGGGTKVEIK
binds | 111_C10 (scFv, not shown: 6xHis/tri-FLAG tags) scFv: QMQLVQSGAEVKKPGAPVKVSCKVSGYTFTDYYMHWVQQAPGKGLEWMGLVDPEDGETIYAEKFQGRVTITADTSTDTAYMELSSLRSEDTAVYYCATDATTPYWTPEIWGQGTLVTVSSLEGGGGSGGGGSGGGASDIQMTQSPSSLSASVGDRVTITCQASQDISNYLNWYQQKPGRAPKVLIYDASNLETGVPSRFSGSGSGTEFTLTISNLRPDDFATYYCQQGDSFPLTFGGGTKVEIK
binds | 111_C9 (scFv, not shown: 6xHis/tri-FLAG tags) scFv: QMQLVQSGAEVKKPGAPVKVSCKVSGYTFTDYYMHWVQQAPGKGLEWMGLVDPEDGETIYAEKFQGRVTITADTSTDTAYMELSSLRSEDTAVYYCATDATTPYWGMMAWGQGTLVTVSSLEGGGGSGGGGSGGGASDIQMTQSPSSLSASVGDRVTITCQASQDISNYLNWYQQKPGRAPKVLIYDASNLETGVPSRFSGSGSGTEFTLTISNLRPDDFATYYCQQGDSFPLTFGGGTKVEIK
binds | 111_C5 (scFv, not shown: 6xHis/tri-FLAG tags) scFv: QMQLVQSGAEVKKPGAPVKVSCKVSGYTFTDYYMHWVQQAPGKGLEWMGLVDPEDGETIYAEKFQGRVTITADTSTDTAYMELSSLRSEDTAVYYCATDATTPYWFPKVWGQGTLVTVSSLEGGGGSGGGGSGGGASDIQMTQSPSSLSASVGDRVTITCQASQDISNYLNWYQQKPGRAPKVLIYDASNLETGVPSRFSGSGSGTEFTLTISNLRPDDFATYYCQQGDSFPLTFGGGTKVEIK
